Experiment in all cases: Kinase profiling (radiometric filter-binding)
What all share (assay type): biochemical

The target of one series is Aurora B (Homo sapiens, UniProt Q96GD4). The settings on record: 1 µM inhibitor, read-out: Residual activity, %. In outline:
(§1)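 Activity remaining (% of control without inhibitor) at 1 µM final compound; human kinases, ATP ≤ KM, radiometric filter binding.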

A further series addresses HER4 (Homo sapiens, UniProt Q15303). The settings on record: HER4, 1 µM inhibitor; read-out: Residual activity, %. In outline:
as §1

A further series addresses MKK2 (Homo sapiens, UniProt P36507). The settings on record: MKK2, 1 µM inhibitor; read-out: Residual activity, %. The method in brief: as §1
A further series has as its target T1, NUAK1 (Homo sapiens, UniProt O60285).
T1 sequence (O60285 1-661): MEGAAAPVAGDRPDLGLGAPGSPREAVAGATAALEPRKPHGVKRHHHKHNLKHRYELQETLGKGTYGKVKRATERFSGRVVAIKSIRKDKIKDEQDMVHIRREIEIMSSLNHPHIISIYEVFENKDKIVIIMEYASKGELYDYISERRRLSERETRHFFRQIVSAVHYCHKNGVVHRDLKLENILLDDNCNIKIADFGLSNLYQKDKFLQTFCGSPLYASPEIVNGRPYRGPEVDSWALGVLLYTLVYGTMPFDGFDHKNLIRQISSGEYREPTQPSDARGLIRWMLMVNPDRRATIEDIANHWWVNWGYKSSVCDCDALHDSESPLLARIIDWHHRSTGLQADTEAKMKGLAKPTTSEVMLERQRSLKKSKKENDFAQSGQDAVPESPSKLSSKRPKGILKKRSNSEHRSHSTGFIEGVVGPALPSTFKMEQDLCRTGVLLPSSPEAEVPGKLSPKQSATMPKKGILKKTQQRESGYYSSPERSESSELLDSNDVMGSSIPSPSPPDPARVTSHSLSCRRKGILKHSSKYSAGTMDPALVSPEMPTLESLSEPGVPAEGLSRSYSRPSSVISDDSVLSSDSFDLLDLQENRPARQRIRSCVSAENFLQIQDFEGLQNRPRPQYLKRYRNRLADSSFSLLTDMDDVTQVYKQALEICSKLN
The settings on record: NUAK1, 1 µM inhibitor; read-out: Residual activity, %. The method in brief: as §1

For a further series, the target named is PKCγ (Homo sapiens, UniProt P05129). The following applies: 1 µM inhibitor, read-out: Residual activity, %. In outline: as §1
A further series concerns the target T2, PRAK (Homo sapiens, UniProt Q8IW41).
T2 sequence (Q8IW41 1-473): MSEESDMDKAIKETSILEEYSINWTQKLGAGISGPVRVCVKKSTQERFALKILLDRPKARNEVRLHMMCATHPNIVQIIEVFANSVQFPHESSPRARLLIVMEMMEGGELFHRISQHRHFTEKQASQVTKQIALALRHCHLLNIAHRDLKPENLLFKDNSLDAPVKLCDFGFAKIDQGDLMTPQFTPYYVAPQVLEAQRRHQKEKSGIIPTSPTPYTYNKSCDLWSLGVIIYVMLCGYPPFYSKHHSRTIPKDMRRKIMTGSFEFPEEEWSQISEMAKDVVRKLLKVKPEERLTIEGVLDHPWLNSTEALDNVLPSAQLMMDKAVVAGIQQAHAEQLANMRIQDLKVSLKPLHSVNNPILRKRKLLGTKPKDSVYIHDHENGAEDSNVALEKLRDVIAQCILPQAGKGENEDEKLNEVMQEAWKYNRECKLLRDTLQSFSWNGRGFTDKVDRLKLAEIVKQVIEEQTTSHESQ
The following applies: 1 µM inhibitor, read-out: Residual activity, %. The method in brief: as §1

A further series has as its target T3, TAK1 (Homo sapiens, UniProt O43318).
T3 sequence (O43318 1-303 limits assumed): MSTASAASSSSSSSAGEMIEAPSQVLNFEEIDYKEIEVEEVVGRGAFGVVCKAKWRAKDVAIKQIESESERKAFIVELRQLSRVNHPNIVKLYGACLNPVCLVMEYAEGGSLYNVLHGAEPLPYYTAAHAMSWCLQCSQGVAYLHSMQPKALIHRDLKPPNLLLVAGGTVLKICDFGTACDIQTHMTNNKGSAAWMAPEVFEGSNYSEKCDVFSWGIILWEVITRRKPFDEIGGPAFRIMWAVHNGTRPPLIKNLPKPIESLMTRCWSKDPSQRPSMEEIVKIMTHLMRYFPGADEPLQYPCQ
The settings on record: TAK1, 1 µM inhibitor; read-out: Residual activity, %. In outline: as §1

The next series deals with TTBK1 (Homo sapiens, UniProt Q5TCY1). The settings on record: TTBK1, 1 µM inhibitor; read-out: Residual activity, %. The method in brief:
as §1

The target in the next series is WNK1 (Homo sapiens, UniProt Q9H4A3). The settings on record: WNK1, 1 µM inhibitor; read-out: Residual activity, %. The method in brief:
as §1

Square brackets hold non-standard residues; d marks the D form. Peptide text beside a SMILES is read from it. * marks the point of attachment. X3 = O=C(CCCCCNCc1nc2c(sc3cc(Br)cnc32)c(=O)[nH]1)*

HER4, sequence (Q15303 26-1308): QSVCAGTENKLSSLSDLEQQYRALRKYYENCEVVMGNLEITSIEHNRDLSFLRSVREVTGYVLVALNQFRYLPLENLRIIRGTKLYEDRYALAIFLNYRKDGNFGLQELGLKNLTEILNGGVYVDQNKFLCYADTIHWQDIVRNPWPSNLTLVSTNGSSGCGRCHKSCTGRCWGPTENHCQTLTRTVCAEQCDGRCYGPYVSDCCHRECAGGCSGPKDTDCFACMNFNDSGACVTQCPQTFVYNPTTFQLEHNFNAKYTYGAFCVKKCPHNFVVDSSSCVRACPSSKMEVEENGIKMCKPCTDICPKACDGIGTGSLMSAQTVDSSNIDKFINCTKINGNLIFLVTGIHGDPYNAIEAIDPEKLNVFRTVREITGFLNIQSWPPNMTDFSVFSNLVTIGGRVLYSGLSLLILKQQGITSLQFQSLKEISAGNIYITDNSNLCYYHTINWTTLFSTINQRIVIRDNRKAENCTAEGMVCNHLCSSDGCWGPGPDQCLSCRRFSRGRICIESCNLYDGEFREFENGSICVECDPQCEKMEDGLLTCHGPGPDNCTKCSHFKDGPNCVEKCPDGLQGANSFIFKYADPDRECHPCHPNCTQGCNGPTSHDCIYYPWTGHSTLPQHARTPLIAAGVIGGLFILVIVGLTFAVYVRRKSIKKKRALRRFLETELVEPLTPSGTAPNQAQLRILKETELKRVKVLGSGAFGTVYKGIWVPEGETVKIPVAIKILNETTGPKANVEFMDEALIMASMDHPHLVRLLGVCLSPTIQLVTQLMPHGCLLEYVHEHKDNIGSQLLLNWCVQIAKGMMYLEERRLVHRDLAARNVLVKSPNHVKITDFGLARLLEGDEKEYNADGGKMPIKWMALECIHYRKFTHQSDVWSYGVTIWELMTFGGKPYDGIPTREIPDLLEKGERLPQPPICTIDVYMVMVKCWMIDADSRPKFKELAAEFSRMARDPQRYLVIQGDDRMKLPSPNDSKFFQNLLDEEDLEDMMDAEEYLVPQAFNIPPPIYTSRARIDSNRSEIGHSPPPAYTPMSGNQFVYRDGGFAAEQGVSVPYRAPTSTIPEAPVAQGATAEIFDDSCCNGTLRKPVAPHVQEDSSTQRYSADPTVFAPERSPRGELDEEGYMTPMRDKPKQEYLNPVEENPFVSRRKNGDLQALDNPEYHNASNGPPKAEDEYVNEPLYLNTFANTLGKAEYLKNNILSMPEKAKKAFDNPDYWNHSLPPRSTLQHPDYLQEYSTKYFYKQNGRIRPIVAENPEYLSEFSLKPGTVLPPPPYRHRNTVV
WNK1, sequence (Q9H4A3 whole entry): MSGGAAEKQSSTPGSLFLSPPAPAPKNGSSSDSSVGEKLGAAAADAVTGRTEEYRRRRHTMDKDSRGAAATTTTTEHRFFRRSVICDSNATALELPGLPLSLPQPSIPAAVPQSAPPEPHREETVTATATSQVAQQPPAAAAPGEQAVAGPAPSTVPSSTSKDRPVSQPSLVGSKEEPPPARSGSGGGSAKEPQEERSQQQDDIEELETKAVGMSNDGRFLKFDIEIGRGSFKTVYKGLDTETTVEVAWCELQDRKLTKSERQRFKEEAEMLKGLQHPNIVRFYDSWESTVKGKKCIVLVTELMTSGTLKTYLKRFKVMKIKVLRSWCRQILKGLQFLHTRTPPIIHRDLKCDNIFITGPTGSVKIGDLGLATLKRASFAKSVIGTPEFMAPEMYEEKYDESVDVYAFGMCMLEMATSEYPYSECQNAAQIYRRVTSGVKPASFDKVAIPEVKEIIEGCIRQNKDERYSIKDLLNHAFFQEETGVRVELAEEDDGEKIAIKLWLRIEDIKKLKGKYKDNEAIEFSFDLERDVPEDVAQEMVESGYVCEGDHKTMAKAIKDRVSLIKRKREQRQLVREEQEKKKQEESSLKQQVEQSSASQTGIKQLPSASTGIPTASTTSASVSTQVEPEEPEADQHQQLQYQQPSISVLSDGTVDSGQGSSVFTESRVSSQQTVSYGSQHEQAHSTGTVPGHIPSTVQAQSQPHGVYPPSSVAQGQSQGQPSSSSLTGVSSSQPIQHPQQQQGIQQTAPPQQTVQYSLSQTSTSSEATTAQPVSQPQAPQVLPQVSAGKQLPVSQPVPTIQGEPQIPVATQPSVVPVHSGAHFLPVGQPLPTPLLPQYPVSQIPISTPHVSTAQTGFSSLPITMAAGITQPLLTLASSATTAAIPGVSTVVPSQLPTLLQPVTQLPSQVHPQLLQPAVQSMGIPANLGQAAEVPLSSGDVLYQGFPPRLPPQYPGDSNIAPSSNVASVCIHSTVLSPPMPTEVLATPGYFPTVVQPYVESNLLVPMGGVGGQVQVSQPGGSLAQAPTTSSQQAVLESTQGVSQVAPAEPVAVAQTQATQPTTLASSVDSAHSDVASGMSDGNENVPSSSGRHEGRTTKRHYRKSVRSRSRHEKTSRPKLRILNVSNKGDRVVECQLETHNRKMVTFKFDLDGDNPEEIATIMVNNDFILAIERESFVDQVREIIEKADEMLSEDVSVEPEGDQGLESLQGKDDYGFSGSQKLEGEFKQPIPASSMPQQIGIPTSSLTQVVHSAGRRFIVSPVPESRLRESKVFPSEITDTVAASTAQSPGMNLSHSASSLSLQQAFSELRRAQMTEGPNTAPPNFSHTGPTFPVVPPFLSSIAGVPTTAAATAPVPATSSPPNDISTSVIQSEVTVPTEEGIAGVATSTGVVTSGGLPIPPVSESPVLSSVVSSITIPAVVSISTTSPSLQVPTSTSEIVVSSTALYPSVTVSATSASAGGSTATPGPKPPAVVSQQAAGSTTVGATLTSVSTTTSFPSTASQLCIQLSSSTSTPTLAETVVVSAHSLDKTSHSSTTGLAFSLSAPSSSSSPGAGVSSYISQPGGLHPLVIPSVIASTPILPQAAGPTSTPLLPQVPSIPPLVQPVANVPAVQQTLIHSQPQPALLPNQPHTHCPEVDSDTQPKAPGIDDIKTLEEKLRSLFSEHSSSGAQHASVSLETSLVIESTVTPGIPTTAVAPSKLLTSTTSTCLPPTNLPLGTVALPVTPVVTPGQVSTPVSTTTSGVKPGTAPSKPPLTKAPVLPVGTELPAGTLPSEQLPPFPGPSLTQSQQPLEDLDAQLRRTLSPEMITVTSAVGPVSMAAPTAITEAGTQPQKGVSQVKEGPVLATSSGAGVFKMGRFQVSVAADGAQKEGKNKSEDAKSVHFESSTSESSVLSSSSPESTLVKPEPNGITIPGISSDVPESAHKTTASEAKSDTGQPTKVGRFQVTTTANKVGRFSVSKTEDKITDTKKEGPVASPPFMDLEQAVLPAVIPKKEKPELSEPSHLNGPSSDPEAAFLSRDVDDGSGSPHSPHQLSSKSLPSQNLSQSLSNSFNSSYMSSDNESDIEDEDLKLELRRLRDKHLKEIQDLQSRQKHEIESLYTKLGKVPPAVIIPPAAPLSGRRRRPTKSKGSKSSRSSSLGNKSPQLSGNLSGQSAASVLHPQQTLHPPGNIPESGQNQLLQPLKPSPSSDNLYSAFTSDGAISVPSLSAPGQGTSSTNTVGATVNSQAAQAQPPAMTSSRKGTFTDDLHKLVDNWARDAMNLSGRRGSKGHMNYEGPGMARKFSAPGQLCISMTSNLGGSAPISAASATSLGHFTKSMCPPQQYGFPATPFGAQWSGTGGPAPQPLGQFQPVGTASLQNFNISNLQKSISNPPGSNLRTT
MKK2, sequence (P36507 whole entry): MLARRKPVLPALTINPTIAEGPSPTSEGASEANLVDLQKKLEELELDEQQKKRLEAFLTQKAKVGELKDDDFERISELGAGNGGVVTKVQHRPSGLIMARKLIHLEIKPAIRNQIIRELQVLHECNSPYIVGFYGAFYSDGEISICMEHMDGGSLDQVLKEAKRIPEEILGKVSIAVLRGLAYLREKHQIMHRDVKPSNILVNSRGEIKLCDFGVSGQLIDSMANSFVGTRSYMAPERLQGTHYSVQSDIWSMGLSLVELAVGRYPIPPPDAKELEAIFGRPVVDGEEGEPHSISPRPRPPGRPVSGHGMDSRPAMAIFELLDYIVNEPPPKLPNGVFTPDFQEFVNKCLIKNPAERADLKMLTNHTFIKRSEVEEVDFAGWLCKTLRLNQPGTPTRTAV
Aurora B, sequence (Q96GD4 whole entry): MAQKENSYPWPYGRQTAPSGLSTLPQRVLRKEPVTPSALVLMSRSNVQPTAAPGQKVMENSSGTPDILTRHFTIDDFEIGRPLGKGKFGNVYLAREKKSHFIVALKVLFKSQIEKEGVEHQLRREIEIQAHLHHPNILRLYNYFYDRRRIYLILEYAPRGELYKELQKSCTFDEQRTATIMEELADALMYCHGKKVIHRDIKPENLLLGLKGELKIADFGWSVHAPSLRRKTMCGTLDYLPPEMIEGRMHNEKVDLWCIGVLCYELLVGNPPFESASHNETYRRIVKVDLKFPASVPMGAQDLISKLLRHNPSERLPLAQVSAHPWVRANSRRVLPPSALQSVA

Regarding `N=C(N)NCCC[C@@H](NC(=O)CCCCCNC(=O)Cn1cnc2c(I)c(I)c(I)c(I)c21)C(=O)N[C@H](CCCNC(=N)N)C(=O)N[C@H](CCCNC(=N)N)C(=O)N[C@H](CCCNC(=N)N)C(=O)N[C@H](CCCNC(=N)N)C(=O)N[C@H](CCCNC(=N)N)C(=O)N[C@H](CCCCN)C(N)=O` [ARC-3125, TIBI-CH2-C(=O)-Ahx-(D-Arg)6-D-Lys-NH2], the remaining activity at 1 µM with Aurora B was determined as 100 ± 4%; in the series with HER4, 120 ± 9%; with MKK2, 68 ± 5%; with NUAK1, 7 ± 15%; in the series with PKCγ it was 86 ± 9%; with PRAK, 112 ± 3%. Moreover, the remaining activity at 1 µM with TAK1 was determined as 9 ± 4%; in the series with TTBK1, 123 ± 25%; with WNK1 it was 105 ± 33%.

Take `N=C(N)NCCC[C@@H](NC(=O)CCCCCNCc1nc2c(sc3cc(Br)cnc32)c(=O)[nH]1)C(=O)N[C@H](CCCNC(=N)N)C(=O)N[C@H](CCCNC(=N)N)C(=O)N[C@H](CCCNC(=N)N)C(=O)N[C@H](CCCNC(=N)N)C(=O)N[C@H](CCCNC(=N)N)C(=O)N[C@H](CCCCN)C(N)=O` [ARC-3126, BPTP-Ahx-(D-Arg)6-D-Lys-NH2] (X3-[dR][dR][dR][dR][dR][dR][dK]-NH2): the remaining activity at 1 µM with Aurora B amounted to 114 ± 20%; with HER4, 110 ± 5%; in the series with MKK2, 117 ± 14%; with NUAK1, 47 ± 7%; with PKCγ, 98 ± 8%; in the series with PRAK it was 97 ± 7%. Further, the results for the remaining activity at 1 µM with TAK1, with TTBK1 and with WNK1 were 88 ± 17%, 103 ± 4% and 107 ± 34%, respectively.

Consider `N=C(N)NCCC[C@@H](NC(=O)CNC(=O)[C@@H](CCCNC(=N)N)NC(=O)[C@@H](CCCNC(=N)N)NC(=O)CCCCCCCNCc1nc2c(sc3cc(Br)cnc32)c(=O)[nH]1)C(=O)N[C@H](CCCCN)C(N)=O` [Compound 1, BPTP-Aoc-(D-Arg)2-Gly-D-Arg-D-Lys-NH2], for which the remaining activity at 1 µM in the series with Aurora B came to 102 ± 19%; in the series with HER4 it was 111 ± 13%; with MKK2, 102 ± 5%; with NUAK1, 95 ± 14%; with PKCγ, 99 ± 11%; with PRAK it was 104 ± 13%. For the same compound, the remaining activity at 1 µM in the series with TAK1 was found to be 107 ± 3%; with TTBK1, 116 ± 5%; with WNK1, 96 ± 4%.

Turning to `N=C(N)NCCC[C@@H](NC(=O)CNC(=O)[C@@H](CCCNC(=N)N)NC(=O)[C@@H](CCCNC(=N)N)NC(=O)CCCCCCCNCc1nc2c(sc3ccc(Br)cc32)c(=O)[nH]1)C(=O)N[C@H](CCCCN)C(N)=O` [Compound 2, BBTP-Aoc-(D-Arg)2-Gly-D-Arg-D-Lys-NH2], the remaining activity at 1 µM came out at 98 ± 2% with Aurora B; 114 ± 15% in the series with HER4; 108 ± 11% with MKK2; 102 ± 14% with NUAK1; 97 ± 3% with PKCγ; 89% with PRAK. For the same compound, the values for the remaining activity at 1 µM in the series with TAK1, in the series with TTBK1 and with WNK1 were 101 ± 1%, 97 ± 7% and 93 ± 1%, respectively.

With `N=C(N)NCCC[C@@H](NC(=O)CNC(=O)[C@@H](CCCNC(=N)N)NC(=O)[C@@H](CCCNC(=N)N)NC(=O)Cn1cc(CNCc2nc3c(sc4ccc(Br)cc43)c(=O)[nH]2)nn1)C(=O)N[C@H](CCCCN)C(N)=O` [Compound 3, BBTP-Amt-(D-Arg)2-Gly-D-Arg-D-Lys-NH2], the remaining activity at 1 µM was determined as 111 ± 1% with Aurora B; 105 ± 8% with HER4; 96 ± 7% in the series with MKK2; 74 ± 6% with NUAK1; 105 ± 9% with PKCγ; 79 ± 7% in the series with PRAK. Also, the remaining activity at 1 µM with TAK1 turned out to be 99 ± 10%; with TTBK1, 99 ± 6%; with WNK1, 104 ± 6%.

The values above are taken from paper PMC8307404, “Crystal Structure-Guided Design of Bisubstrate Inhibitors and Photoluminescent Probes for Protein Kinases of the PIM Family” (Molecules, 2021).
